This is an account of results in PMC9371702 (Proceedings of the National Academy of Sciences of the …, 2022).

The assay concerns the target human CTLA-4 (as crystallised with 4003-1 (VH)) (human, UniProt P16410). The assay is described as follows: crystal structure.

human CTLA-4 (as crystallised with 4003-1 (VH)), sequence (P16410 36-154): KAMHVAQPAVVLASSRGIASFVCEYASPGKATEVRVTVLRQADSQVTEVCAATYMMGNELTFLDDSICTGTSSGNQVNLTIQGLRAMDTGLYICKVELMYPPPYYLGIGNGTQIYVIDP

B1: 4003-1 (VH) (VHH)
VHH: EVQLVESGGGLIQPGGSLRLSCAVSGFTVSKNYMSWVRQAPGKGLEWVSVVYSGGSKTYADSVKGRFTISRDNSKNTLYLQMNSLRAEDTAVYYCARAVPHSPSSFDIWGQGTMVTVSS
With B1, the binding result is reported as “binds”.
